Data taken from paper PMC4454200 (2015).

Target: Myosin-5a (Mus musculus, UniProt Q99104)
Experiment: ATPase activity assay

Sequence of Myosin-5a (Q99104 2-1853): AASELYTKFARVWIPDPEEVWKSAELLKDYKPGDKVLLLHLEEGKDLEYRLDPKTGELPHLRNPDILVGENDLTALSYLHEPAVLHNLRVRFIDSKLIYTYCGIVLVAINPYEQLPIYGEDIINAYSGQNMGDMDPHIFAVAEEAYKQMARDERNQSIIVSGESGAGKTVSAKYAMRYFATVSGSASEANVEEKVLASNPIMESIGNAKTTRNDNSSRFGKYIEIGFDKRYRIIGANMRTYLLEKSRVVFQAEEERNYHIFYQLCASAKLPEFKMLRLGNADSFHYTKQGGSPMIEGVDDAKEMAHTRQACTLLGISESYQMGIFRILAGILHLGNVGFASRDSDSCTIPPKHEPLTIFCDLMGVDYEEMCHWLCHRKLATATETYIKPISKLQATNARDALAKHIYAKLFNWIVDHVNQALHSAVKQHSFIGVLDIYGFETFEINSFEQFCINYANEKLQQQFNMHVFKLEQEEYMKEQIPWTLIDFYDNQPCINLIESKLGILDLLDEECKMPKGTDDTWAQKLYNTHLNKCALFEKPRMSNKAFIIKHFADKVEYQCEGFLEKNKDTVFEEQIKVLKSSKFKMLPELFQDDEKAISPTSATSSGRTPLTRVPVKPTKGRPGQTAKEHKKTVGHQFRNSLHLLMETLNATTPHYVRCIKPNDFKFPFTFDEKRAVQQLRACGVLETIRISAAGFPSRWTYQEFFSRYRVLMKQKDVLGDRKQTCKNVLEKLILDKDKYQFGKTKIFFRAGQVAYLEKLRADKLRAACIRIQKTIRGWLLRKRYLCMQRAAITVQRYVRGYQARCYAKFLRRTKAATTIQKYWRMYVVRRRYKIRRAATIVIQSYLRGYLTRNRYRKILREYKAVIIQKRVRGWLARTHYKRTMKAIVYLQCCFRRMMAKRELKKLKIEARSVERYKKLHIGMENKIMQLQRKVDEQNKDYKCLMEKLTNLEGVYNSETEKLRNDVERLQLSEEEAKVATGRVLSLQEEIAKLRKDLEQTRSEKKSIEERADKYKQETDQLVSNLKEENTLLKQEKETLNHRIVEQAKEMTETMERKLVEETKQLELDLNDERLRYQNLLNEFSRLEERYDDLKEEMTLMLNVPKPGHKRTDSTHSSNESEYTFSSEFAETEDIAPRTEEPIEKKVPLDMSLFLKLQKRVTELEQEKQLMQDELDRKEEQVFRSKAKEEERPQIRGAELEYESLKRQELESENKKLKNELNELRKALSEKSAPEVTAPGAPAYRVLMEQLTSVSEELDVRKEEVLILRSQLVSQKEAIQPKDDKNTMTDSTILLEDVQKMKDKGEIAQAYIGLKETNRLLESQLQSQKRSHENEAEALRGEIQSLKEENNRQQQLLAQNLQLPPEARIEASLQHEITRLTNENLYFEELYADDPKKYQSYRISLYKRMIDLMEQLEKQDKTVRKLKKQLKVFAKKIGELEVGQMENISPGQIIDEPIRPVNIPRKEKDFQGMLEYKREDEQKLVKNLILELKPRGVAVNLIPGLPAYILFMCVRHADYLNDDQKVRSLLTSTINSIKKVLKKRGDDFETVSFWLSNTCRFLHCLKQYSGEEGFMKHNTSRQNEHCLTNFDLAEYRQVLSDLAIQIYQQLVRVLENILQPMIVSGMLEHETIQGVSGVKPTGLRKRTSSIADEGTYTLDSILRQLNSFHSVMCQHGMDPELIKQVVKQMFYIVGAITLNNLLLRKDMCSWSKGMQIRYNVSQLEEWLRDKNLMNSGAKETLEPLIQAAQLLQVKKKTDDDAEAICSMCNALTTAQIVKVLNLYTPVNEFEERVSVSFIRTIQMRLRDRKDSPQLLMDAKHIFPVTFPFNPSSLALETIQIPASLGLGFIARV

RDQPLNSKKKKRLLSFRDVDFEEDSD [Melanophilin GTBDP]
Kd: 19.8 µM
